Results: PMC11705074
Like-named read-outs stand apart in the source and are kept apart here.

How the values were obtained:
HhpR [1] = target: T1, HhpR (Pyrococcus yayanosii A1, UniProt F8AFU3 1-281); experiment: fluorescence polarization
T1 sequence: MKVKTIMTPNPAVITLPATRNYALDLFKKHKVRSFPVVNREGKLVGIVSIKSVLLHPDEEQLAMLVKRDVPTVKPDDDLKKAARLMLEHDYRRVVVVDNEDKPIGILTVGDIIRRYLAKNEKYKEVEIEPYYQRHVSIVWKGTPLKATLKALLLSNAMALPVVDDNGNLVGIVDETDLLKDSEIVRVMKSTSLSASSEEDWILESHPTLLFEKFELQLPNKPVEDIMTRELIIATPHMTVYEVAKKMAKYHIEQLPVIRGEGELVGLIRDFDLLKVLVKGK

HhpR [2] = target: T1, HhpR; experiment: fluorescence polarization; remark: listed apart in the source

B1: 44-bp Phhp (dsDNA)
DNA 1: CATATAAAAATTGTTGGGCAAATCTGCCCAGAAAAGCTTAAAAG
DNA 2: CTTTTAAGCTTTTCTGGGCAGATTTGCCCAACAATTTTTATATG
HhpR [1]
  Kd: 0.65 ± 0.37 µM
HhpR [2]
  Kd: 1.9 ± 0.4 µM
